From PMC11228984 come the findings set out here.

The nature of the series: expression and purification from insect cells. The settings on record: glycan lost; control: unmutated TREK2 construct.

B1: TREK2: N144Q (protein)
parent chain: MFFLYTDFFLSLVAVPAAAPVCQPKSATNGQPPAPAPTPTPRLSISSRATVVARMEGTSQGGLQTVMKWKTVVAIFVVVVVYLVTGGLVFRALEQPFESSQKNTIALEKAEFLRDHVCVSPQELETLIQHALDADNAGVSPIGNSSNNSSHWDLGSAFFFAGTVITTIGYGNIAPSTEGGKIFCILYAIFGIPLFGFLLAGIGDQLGTIFGKSIARVEKVFRKKQVSQTKIRVISTILFILAGCIVFVTIPAVIFKYIEGWTALESIYFVVVTLTTVGFGDFVAGGNAGINYREWYKPLVWFWILVGLAYFAAVLSMIGDWLRVLSKKTKEEVGEIKAHAAEWKANVTAEFRETRRRLSVEIHDKLQRAATIRSMERRRLGLDQRAHSLDMLSPEKRSVFAALDTGRFKASSQESINNRPNNLRLKGPEQLNKHGQGASEDNIINKFGSTSRLTKRKNKDLKKTLPEDVQKIYKTFRNYSLDEEKKEEETEKMCNSDNSSTAMLTDCIQQHAELENGMIPTDTKDREPENNSLLEDRN
Consider B1, for which the expression_or_secretion result is “no change”.
